The values that follow come from patent US20160215027A1.

Experiment [1] has as its target human IgG (human). Kind of experiment: human IgG binding to commercial gel support (ligand at 6 mg/mL gel on epoxy-activated crosslinked agarose); elution, A280.
Experiment [2] deals with human IgG (human). Put plainly: human IgG binding to commercial gel support (epoxy-activated crosslinked agarose); elution, A280.

In the experiment with human IgG (human) [1], “native sequence protein A with the introduced C-terminal cysteine (ligand of rProtein A-Sepharose FF, GE Healthcare Science) (from UniProt P38507 37-327)” showed a Human IgG binding amount of 50.1 mg/mL gel.

“tetramer of four linked Z domains of protein A with the introduced C-terminal cysteine residue (ligand of MabSelect SuRe, GE Healthcare Science) (designed binder)” displayed a Human IgG binding amount in the experiment with human IgG (human) [2] of 45.5 mg/mL gel.
